Marks after values point to notes of the source that are not given here.
Legend:
PlGF = target: T1, PlGF (Homo sapiens, UniProt P49763); assay: Free peptide binding ELISA (FLAG epitope probe), PlGF-coated wells; conditions: free peptide; BP3, BP4, BP3scr at up to 50 μM
T1 construct: purchased R&D Systems
T1 sequence (P49763 19-170 isoform P49763-3 limits assumed): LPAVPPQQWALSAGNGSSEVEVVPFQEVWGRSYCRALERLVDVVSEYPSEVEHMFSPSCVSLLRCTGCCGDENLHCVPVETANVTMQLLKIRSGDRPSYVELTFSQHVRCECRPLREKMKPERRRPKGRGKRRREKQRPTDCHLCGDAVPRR
Protocol: (§1) Competition assays were done with 2.5 or 25 U/ml heparin (Sigma, St. Louis, Mo.). BP1, 3, 4, and a scrambled version of BP3 (scrBP3) were synthesized with a linker followed by the FLAG epitope ([…] SEQ ID NO:5) at the C-terminus. Thirty minutes after addition of the first reagent, the second reagent was added, followed by another 30 minute incubation. Peptide binding was assessed by probing for the FLAG epitope (Prickett et al., Biotechniques 7:580-9, 1989; Castrucci et al., J. Virol. 66:4647-53, 1992). Absorbance was read at 490 nm.

[1] = target: T2, recombinant human Flt-1 fusion protein (Homo sapiens, UniProt P17948); assay: Free peptide binding and competition ELISA, Flt-1-coated wells; conditions: free peptide
T2 construct: purchased R & D Systems
Protocol: as §1

[2] = test system: MCF-7 human breast cancer cells; type: cell-based
Protocol: (§2) MTT (3-(4,5-dimethylthiazolyl-2)-2,5-diphenyltetrazolium bromide, Sigma) assays were performed under conditions of low serum (1%) to determine PlGF effects on cell viability, the toxicity of the peptides, and their effect on PlGF-mediated breast tumor cell growth (Mosmann, 1983, J Immunol Meth 65:55-63; Modrak et al., 2000, Biochem Biophys Res Commun 268:603-606). Peptide concentration was 1-2 μM, and the concentration of exogenous PlGF was 2 nM. The human breast tumor lines tested were: MDA-MB-231, MDA-MB-468 and MCF-7 (ATCC, Mannasses, Va.). Briefly, 96-well plates were seeded with 5-10×10^4 cells/ml in medium containing 1% fetal bovine serum (FBS). After 24 h, cells were treated with individual peptides at a concentration of 1-2 μM (4 binding peptides), in quadruplicate, and/or rhuPlGF at a 2-nM concentration. After the designated time points, 0.5 mg/ml MTT (5 mg/ml stock diluted 1:10 in RPMI medium with no serum) was added to the wells (Mosmann, 1983). When purple crystals were clearly visible in the cells, and the plate appeared to be fully developed, the reaction was terminated with acid alcohol (0.04M HCl in isopropanol). Absorbance of the dissolved crystals was read at 570 nm. The 24-h time point was chosen because the in vitro effects of PlGF on tumor cell migration were measurable at this time (see wound-healing assay below). These assays were also performed using medium with 10% FBS, with similar results.

[3] = test system: MDA-MB-231 human breast cancer cells; assay: MTT tumor cell viability assay, MDA-MB-231; type: cell-based; conditions: 24 h
Protocol: as §2, with “These assays were also performed using medium with 10% FBS, with similar results.” left out

MDA-MB-468 xenografts = type: in vivo, mice; conditions: 200 μg/dose i.p., twice-weekly; for tumor growth inhibition: after 4 weeks
Protocol: FIG. 5. Treatment of mice bearing MDA-MB-468 xenografts with peptides BP1 or BP3. Mice were treated every 3-4 days with 200 ug BP as described in Methods. Tumor volume was measured 2×/week. *P<0.05 at days 10, 14, 17 and 24 (change in tumor volume (ANOVA)). FIG. 5A—tumors treated with binding peptide 1. FIG. 5B—tumors treated with binding peptide 3.
Mice bearing MDA-MB-468 xenografts (average tumor volume: 0.19 cm^3) were treated with i.p. injections of individual peptides (200 μg/dose) (FIG. 5). After 4 weeks of twice-weekly treatment, tumor growth was inhibited by 49% and 58% in mice treated with BP1 (FIG. 5A) or BP3 (FIG. 5B), respectively. The effect of BP3 on tumor growth was apparent after 2 weeks of treatment (FIG. 5B), whereas the inhibitory effect of BP1 was evident after one week (FIG. 5A). The average changes in individual tumor volumes during treatment with BP1 were significant (P<0.05) at days 10, 14, 17 and 24 (FIG. 5A). Treatment with BP2 was ineffective; tumors continued to grow at almost the same rate as the mock-treated controls (results not shown). BP4 treatment produced a 20% inhibition of tumor growth (results not shown).

[4] = test system: PlGF-mediated angiogenesis in corneal tissues; assay: Mouse corneal micropocket angiogenesis assay; type: in vivo, C57B16/J mice; conditions: day 5; for effect on PlGF mediated angiogenesis in corneal tissues: micropellets, 100 ng PlGF with 1 μM peptide
Protocol: The ability of PlGF ligands to block PlGF-mediated angiogenesis in corneal tissues in vivo is investigated. Corneal micropockets are created using a modified von Graefe cataract knife in both eyes of male 5-6-wk-old C57B16/J mice. Micropellets comprised of a sustained release formulation of polyglucuronic acid/polylactic acid containing 100 ng of PlGF or PlGF with 1 μM BP-1, BP-2, BP-3 or BP-4 are implanted into each corneal pocket. Eyes are examined by a slit-lamp biomicroscope on day 5 after pellet implantation. Vessel length and neovascularization are measured.

[5] = test system: MDA-MB-468 human breast cancer cells; assay: MTT tumor cell viability assay, MDA-MB-468; type: cell-based; conditions: peptide 2 μM or PlGF 2 nM alone, 24 h
Protocol: as §2, with “These assays were also performed using medium with 10% FBS, with similar results.” left out

MDA-MB-231 [6] = assay: Wound-healing (motility) assay, MDA-MB-231; type: cell-based, human
Protocol: (§3) MCF-7, MDA-MB-23 1, and MDA-MB-468 breast tumor cell lines or HECs were seeded onto sterile glass coverslips in Petri dishes or six-well plates. When the cells were 70-80% confluent, the monolayers were scratched with a sterile plastic pipet tip.
(§4) Inhibitor concentrations were 50 μM PD98059 (PD98) (mitogen activated protein kinase-kinase 1 [MEK1] inhibitor), 5 nM Wortmannin (phosphatidyl inositol 3 kinase [PI3K] inhibitor), or human recombinant soluble Flt-1 (sFlt-1) (R&D Systems). […] Cells were pre-incubated with PD98 and Wortmannin for 15-30 min before addition of PlGF. Stained (Wright-Giemsa) and mounted coverslips were examined microscopically. Five to ten 100× fields were evaluated by counting the number of cells separated from the wound edges and which appeared to be migrating toward the center of the wound. Results are reported as the average number of cells migrating into the wound/100× field. In some cases data from separate experiments were combined to accommodate inclusion of various treatments in the tables.
(§5) Antibody concentration was 1 μg/ml. MEK1 inhibitor, PD98059 (PD98), 50 μM. PI3K inhibitor, Wortmannin, 5 nM. […] Values for antibody and inhibitor treatments were from separate experiments which included all relevant controls. […] UT denotes untreated controls. *P<0.01 (ANOVA) compared to UT; † P<0.02 (ANOVA) compared to PlGF only. ‡ P<0.001 (ANOVA) compared to PlGF only.

MDA-MB-468 [7] = assay: Wound-healing (motility) assay, MDA-MB-468; type: cell-based, human
Protocol: as §3, §4, §5

MCF-7 [8] = assay: Wound-healing (motility) assay, MCF-7; type: cell-based, human
Protocol: as §3, §4, §5

MDA-MB-231 [9] = assay: Matrigel cell invasion assay, MDA-MB-231; type: cell-based, human; conditions: 24 h
Protocol: (§6) Cellular invasion was determined by addition of 5×10^4cells to growth factor-reduced Matrigel invasion chambers (BD Biosciences Discovery Labware, Bedford, Mass.) (Taylor et al., 2003b; Passaniti et al., 1992, Lab Invest 67, 519-528). Additives to the Matrigel® plugs were pre-incubated together in a total volume of 100 μl PBS at RT for 10 min, after which each additive was added to the Matrigel. Growth factors (2.0 or 0.2 nM), peptide (2 μg/ml), or antibody (1 μg/ml) were added to cells in low serum (0.1% fetal bovine serum [FBS]) medium. Baseline and chemoattractant-based invasion (10% FBS) were included. The number of invading cells was determined by counting the number of cells on the bottom of the invasion chamber membrane after staining at 100× magnification after 24 h (MDA-MB-231) or 48 h (MCF-7, MDA-MB-468). The results of three to five separate experiments are presented.

MCF-7 [10] = assay: Matrigel cell invasion assay, MCF-7; type: cell-based, human; conditions: PlGF 0.2 nM ± peptide 2 μg/ml; 48 h
Protocol: as §6

MDA-MB-468 [11] = assay: Matrigel cell invasion assay, MDA-MB-468; type: cell-based, human; conditions: PlGF 0.2 nM ± peptide 2 μg/ml; 48 h
Protocol: as §6

[12] = test system: microvessels in PlGF-containing Matrigel plugs; assay: Matrigel basement membrane plug angiogenesis assay; type: in vivo, nude mice
From the text: To further investigate the effect of PlGF binding peptides on endothelial cell migration and angiogenesis, Matrigel basement membrane plugs containing PlGF, BP1, BP2, or PBS were implanted s.c. on the flanks of nude mice. The number of interior microvessels in the PBS controls was 16.2±11.4/mm^2. PlGF-only implants contained 28.9±17.2/mm^2 (1.8-fold vs. mock-treated implants), and implants with PlGF and BP1 contained only 12.3±13.0 microvessels/mm^2 (P<0.02).

[13] = PlGF 2 nM ± test agent, relative to PlGF-only value
[14] = growth factor PlGF 2 nM ± test agent (Flt-1 2 nM, peptide 2 μM, antibody 1 μg/ml), 18-24 h

T2 sequence (P17948 with tags, fused parts or gaps limits assumed): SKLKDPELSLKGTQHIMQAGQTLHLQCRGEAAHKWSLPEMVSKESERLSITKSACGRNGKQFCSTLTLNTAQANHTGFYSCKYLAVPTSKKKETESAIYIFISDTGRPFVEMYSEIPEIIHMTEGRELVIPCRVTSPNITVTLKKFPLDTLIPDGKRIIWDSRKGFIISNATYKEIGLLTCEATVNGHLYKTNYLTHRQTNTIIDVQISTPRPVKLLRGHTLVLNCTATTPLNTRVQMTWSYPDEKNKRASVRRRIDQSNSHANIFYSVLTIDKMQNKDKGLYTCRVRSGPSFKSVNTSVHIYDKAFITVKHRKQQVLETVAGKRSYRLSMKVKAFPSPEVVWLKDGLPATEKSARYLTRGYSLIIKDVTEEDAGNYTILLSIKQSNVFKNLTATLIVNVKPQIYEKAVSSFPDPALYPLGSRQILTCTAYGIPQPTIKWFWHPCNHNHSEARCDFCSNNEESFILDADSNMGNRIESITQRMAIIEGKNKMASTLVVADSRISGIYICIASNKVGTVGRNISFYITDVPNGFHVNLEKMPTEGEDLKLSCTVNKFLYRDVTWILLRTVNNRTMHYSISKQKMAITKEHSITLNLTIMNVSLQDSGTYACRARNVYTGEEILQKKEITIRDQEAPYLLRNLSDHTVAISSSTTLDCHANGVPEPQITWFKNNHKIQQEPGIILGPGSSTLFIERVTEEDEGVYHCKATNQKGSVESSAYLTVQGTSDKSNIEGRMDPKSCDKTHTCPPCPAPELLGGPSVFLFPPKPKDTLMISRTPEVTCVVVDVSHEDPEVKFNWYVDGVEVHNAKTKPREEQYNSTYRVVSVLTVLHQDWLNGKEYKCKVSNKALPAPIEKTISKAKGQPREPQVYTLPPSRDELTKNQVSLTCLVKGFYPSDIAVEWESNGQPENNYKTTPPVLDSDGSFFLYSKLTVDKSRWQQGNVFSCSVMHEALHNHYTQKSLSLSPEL

Molecule: QEAFNRLTSRMH (listed as Homo sapiens) [BP3]
- binding to PlGF (in words) (PlGF): did not bind detectably
- binding to Flt-1 (in words) [1]: No measurable binding
- effect on viability after 48 h, peptide alone ([2]; peptide alone, 48 h, vs untreated controls): lost viability
- effect on viability of PlGF-containing MDA-MB-231 cultures ([3]; PlGF 2 nM + peptide 1-2 μM, 1% serum): significant reduction in cell viability
- duration of treatment after which effect on tumor growth was apparent (MDA-MB-468 xenografts): 2 weeks
- tumor growth inhibition (MDA-MB-468 xenografts): 58%
- effect on PlGF mediated angiogenesis in corneal tissues [4]: inhibits

Molecule: RMPYSEHSAPLG (listed as Homo sapiens) [BP4]
- binding to PlGF (in words) (PlGF): did not bind detectably
- binding to Flt-1 (in words) [1]: No measurable binding
- effect on viability of PlGF-containing MCF-7 cultures ([2]; PlGF 2 nM + peptide 1-2 μM, 24 h, 1% serum): significant reduction in cell viability
- tumor growth inhibition (MDA-MB-468 xenografts): 20%
- effect on PlGF mediated angiogenesis in corneal tissues [4]: inhibits

B1: PlGF: recombinant human PlGF-2, placental growth factor (R&D Systems) (protein)
chain: LPAVPPQQWALSAGNGSSEVEVVPFQEVWGRSYCRALERLVDVVSEYPSEVEHMFSPSCVSLLRCTGCCGDENLHCVPVETANVTMQLLKIRSGDRPSYVELTFSQHVRCECRPLREKMKPERRRPKGRGKRRREKQRPTDCHLCGDAVPRR
- effect on cell viability / cell number, agent alone ([3]; peptide 2 μM or PlGF 2 nM alone): increased cell numbers
- effect on cell viability / cell number, agent alone [5]: increased cell numbers
- Relative activity (MDA-MB-231 [6]; [13]): 100
- increase in motility (MDA-MB-231 [6]; exogenous PlGF): 1.8-2.1 fold
- Migrating cells (MDA-MB-231 [6]; growth factor PlGF 2 nM ± test agent (Flt-1 2 nM, peptide 2 μM, antibody 1 μg/ml, PD98059 50 μM, Wortmannin 5 nM), 18-24 h): 42.0 ± 13.3* cells/100× field
- Relative activity (MDA-MB-468 [7]; [13]): 100
- effect on motility (in words) (MDA-MB-468 [7]; exogenous PlGF): did not significantly affect
- Migrating cells (MDA-MB-468 [7]; [14]): 14.7 ± 9.8 cells/100× field
- Relative activity (MCF-7 [8]; [13]): 100
- increase in motility (MCF-7 [8]; exogenous PlGF): 1.8-2.1 fold
- Migrating cells (MCF-7 [8]; [14]): 22.1 ± 13.4* cells/100× field
- Average fold-change in the number of cells on the membrane compared to untreated controls (MDA-MB-231 [9]; PlGF 0.2 nM ± peptide 2 μg/ml): 4.0 ± 2.2 fold
- invading cells (MDA-MB-231 [9]; PlGF 0.2 nM): 28±12 cells
- invading cells (MDA-MB-231 [9]; PlGF 2.0 nM): 30±13.7 cells
- increased invasion (MDA-MB-231 [9]; PlGF at both 2.0 and 0.2 nM): ~3 fold
- Average fold-change in the number of cells on the membrane compared to untreated controls (MCF-7 [10]): 2.1 ± 0.7 fold
- Average fold-change in the number of cells on the membrane compared to untreated controls (MDA-MB-468 [11]): 1.8 ± 0.3 fold
- interior microvessels ([12]; PlGF-containing implants ± BP1, s.c., PBS controls 16.2±11.4): 28.9±17.2 /mm^2
- microvessels, fold vs. mock-treated implants ([12]; PlGF-only implants): 1.8 fold
- angiogenic response in cornea ([4]; micropellets with 100 ng PlGF): induces a strong angiogenic response

From patent US7642239B2, “Inhibition of placenta growth factor (PLGF) mediated metastasis and/or angiogenesis” (Center for Molecular Medicine and Immunology, priority 2005, dated 2010)
